Results on 3 compounds are retold here after US20050148031A1, “Catalytic efficiency and/or specificity of non-native substrates of enzymes” (priority 2003, published 2005).

For experiment [1], the target named is T1, MEK2 phosphorylation of ERK2 (Mus musculus, UniProt P63085, K52R).
T1 construct: purchased New England Biolabs (ERK2 K52R); Upstate Biotechnology (MEK2)
Nature of the experiment: Kinase assay: MEK2 phosphorylation of ERK2 with docking domain peptides. The format is biochemical, human (MEK2). The procedure: The following experiment was done to investigate whether docking domain peptides could inhibit MEK2 phosphorylation of ERK2. […] An autoradiogram of a representative experiment is shown (see FIG. 2A). The results were plotted as percent phoshphorylation relative to that observed in the absence of any added peptide (see FIG. 2B). ERK2 phosphorylation was analyzed by SDS-PAGE and quantified. Data are the average of two to four experiments, with triplicate data points in each experiment.
ERK2 and peptide were pre-incubated in buffer for 10 min at 37° C., then returned to ice prior to the addition of ATP and MEK2. Reactions were for 20 min at 30° C. ERK2 phosphorylation was quantified by SDS-PAGE followed by analysis of relative incorporation using a Phosphorlmager™ (Molecular Dynamics, Inc.).

Experiment [2] concerns the target T2, MKP-1 dephosphorylation of ERK2 (Mus musculus, UniProt P63085).
T2 construct: purchased Upstate Biotechnology (MKP-1); no vendor is printed for the active ERK2 in this assay
As to the kind of experiment: Phosphatase assay: MKP-1 dephosphorylation of ERK2 with docking domain peptides. The format is biochemical, human (MKP-1). Conditions: western blot with anti-phospho-ERK2. Here is the method: The following experiment was performed to assess whether MAPK-docking domain peptides would inhibit dephosphorylation of ERK2 by MKP-1. Purified, full-length, activated ERK2 (0.5 pmol) was incubated with 0.5 units of purified active MKP-1 for 20 min, in the absence or presence of the specified concentrations of the indicated peptides. ERK2 dephosphoryation was quantified by SDS-PAGE followed by western blotting and immonostaining with anti-phospho-ERK2 (Thr202/Tyr204). The lanes corresponding to ERK2 with no MKP-1 or no added peptide contain 50% of the relative amounts loaded in all other lanes (see FIG. 4A).
Phosphatase reactions (20 μl) for MKP-1 dephosphorylation of ERK2 contained 50 mM Tris-HCl (pH 7.5), 50 mM NaCl, 0.5 pmol active mouse ERK2, 0.5 units active human MKP-1 (Upstate Biotechnology) and the indicated concentration of peptide. Reactions were for 30 min. at 30° C. Reactions were analyzed by SDS-PAGE followed by western transfer and immunostaining with anti-phospho-ERK2 (Thr202/Tyro204) antibody (New England Biolabs).

A further experiment concerns the target T3, MEK2 binding to GST-ERK2 (Mus musculus, UniProt P63085).
T3 construct: made in house; host or cells: MEK2 by in vitro translation
As to the kind of experiment: GST co-sedimentation (pull-down) assay of 35S-MEK2 binding to GST-ERK2. The settings on record: 25 μM or 100 μM peptide. The procedure: The purpose of the following experiment is to assess whether MAPK docking domain peptides would inhibit MEK2-binding to GST-ERK2. Radiolabeled (^35S) MEK2 and MEK2Δ4-16 proteins (˜1 pmol) were prepared by in vitro translation, partially purified by ammonium sulfate precipitation, and then incubated with 10 μg of purified GST or GST-ERK2 pre-bound to glutathione-Sepharose beads, in the absence or presence of the specified concentrations of docking domain peptides (Ste7, MEK1, MEK2, Elk-1) or mutant forms of docking domain peptides (scram7, MEK2EEAA, ElkEEG). Bead-bound protein complexes were isolated by sedimentation and resolved on 12% SDS-polyacrylamide gels. An autoradiogram of a representative experiment is illustrated (see FIG. 5A). Gels were analyzed by staining with Coomassie Blue for visualization of the bound GST fusion protein in order to verify equal amounts in each reaction and by autoradiography for visualization of the bound radiolabeled MEK2 or MEK2Δ4-16 to GST or GST-ERK2 in the absence of peptide (hatched bars), or in the presence of 25 μM (light gray bars) or 100 μM peptide (dark gray bars) (see FIG. 5B). Data are the average of three to five experiments; standard error bars are shown.
The constructs and methods used in the GST co-sedimentation (“pull-down”) experiments shown in FIG. 5 have been described elsewhere (Bardwell et al., 2001). […]

For the compound “MLAEEKPVLPAATANPTIAE [MEK2 mutant peptide, MEK2 peptide with mutations in basic and hydrophobic residues]”, in experiment [1] (peptide titrated into MEK2 kinase assay), the “inhibition of ERK2 phosphorylation by MEK2 (in words)” value is “did not inhibit”. For `CC[C@H](C)[C@H](NC(=O)[C@@H]1CCCN1C(=O)[C@@H](NC(=O)[C@@H]1CCCN1C(=O)[C@H](CCCCN)NC(=O)[C@H](CCCCN)NC(=O)[C@H](CCCCN)NC(=O)[C@@H]1CCCN1C(=O)[C@@H](N)CCSC)[C@@H](C)O)C(=O)N[C@@H](CCC(N)=O)C(=O)N[C@@H](CC(C)C)C(=O)N[C@@H](CC(N)=O)C(=O)N1CCC[C@H]1C(=O)N[C@@H](C)C(=O)N1CCC[C@H]1C(=O)N[C@@H](CC(=O)O)C(=O)NCC(=O)O` [MEK1, MPKKKPTPIQLNPAPDG], the IC50 in experiment [1] (1 μM inactive ERK2, 0.1 units active MEK2, 20 min, read-out: IC50 for inhibition of MEK2 phosphorylation of ERK2) was about 100 µM. Take “KGRKPRDLELPLSPS [Elk-1, docking domain peptide from Elk-1 residues 312-326]”: the “inhibition of MKP-1 mediated dephosphorylation of phospho-ERK2 (in words)” value in experiment [2] is listed as “dose-dependent inhibition”. Besides, the “inhibition of MEK2 protein co-sedimentation with GST-ERK2 (in words)” value in the experiment with MEK2 binding to GST-ERK2 is “inhibited”.
